The values below come from doi:10.1101/2020.02.14.949818 (bioRxiv, 2020).

The series “crystal structure” concerns the molecule itself. The series is described as follows: crystal structure.
The series “SEC-SAXS” deals with the molecule itself. The series is described as follows: SEC-SAXS. (Size exclusion chromatography separates by hydrodynamic size, large species first.)

B1: mouse FUT8 (MmFUT8_(68-575)) (domain or fragment)
chain: RIPEGPIDQGTATGRVRVLEEQLVKAKEQIENYKKQARNGLGKDHEILRRRIENGAKELWFFLQSELKKLKHLEGNELQRHADEILLDLGHHERSIMTDLYYLSQTDGAGDWREKEAKDLTELVQRRITYLQNPKDCSKARKLVCNINKGCGYGCQLHHVVYCFMIAYGTQRTLILESQNWRYATGGWETVFRPVSETCTDRSGLSTGHWSGEVNDKNIQVVELPIVDSLHPRPPYLPLAVPEDLADRLLRVHGDPAVWWVSQFVKYLIRPQPWLEKEIEEATKKLGFKHPVIGVHVRRTDKVGTEAAFHPIEEYMVHVEEHFQLLARRMQVDKKRVYLATDDPTLLKEAKTKYSNYEFISDNSISWSAGLHNRYTENSLRGVILDIHFLSQADFLVCTFSSQVCRVAYEIMQTLHPDASANFHSLDDIYYFGGQNAHNQIAVYPHKPRTEEEIPMEPGDIIGVAGNHWDGYSKGINRKLGKTGLYPSYKVREKIETVKYPTYPEAEK
On to B1, for which the binding result in “crystal structure” was “binds”.

B2: truncated human FUT8 (HsFUT8_(105-575)) (domain or fragment)
chain: RNGLGKDHEILRRRIENGAKELWFFLQSELKKLKNLEGNELQRHADEFLLDLGHHERSIMTDLYYLSQTDGAGDWREKEAKDLTELVQRRITYLQNPKDCSKAKKLVCNINKGCGYGCQLHHVVYCFMIAYGTQRTLILESQNWRYATGGWETVFRPVSETCTDRSGISTGHWSGEVKDKNVQVVELPIVDSLHPRPPYLPLAVPEDLADRLVRVHGDPAVWWVSQFVKYLIRPQPWLEKEIEEATKKLGFKHPVIGVHVRRTDKVGTEAAFHPIEEYMVHVEEHFQLLARRMQVDKKRVYLATDDPSLLKEAKTKYPNYEFISDNSISWSAGLHNRYTENSLRGVILDIHFLSQADFLVCTFSSQVCRVAYEIMQTLHPDASANFHSLDDIYYFGGQNAHNQIAIYAHQPRTADEIPMEPGDIIGVAGNHWDGYSKGVNRKLGRTGLYPSYKVREKIETVKYPTYPEAEK
The stoichiometry N is the number of molecules, sites or subunits per partner or assembly. Consider B2, for which the “stoichiometry N” value in “SEC-SAXS” is 2.
